According to doi:10.1101/331207 (bioRxiv, 2018):

Target: the molecule itself
Experiment: cryo-EM structure

B1: human LRRC8A (leucine-rich repeat-containing 8A) wild-type protein (natural protein)
chain: MIPVTELRYFADTQPAYRILKPWWDVFTDYISIVMLMIAVFGGTLQVTQDKMICLPCKWVTKDSCNDSFRGWAAPGPEPTYPNSTILPTPDTGPTGIKYDLDRHQYNYVDAVCYENRLHWFAKYFPYLVLLHTLIFLACSNFWFKFPRTSSKLEHFVSILLKCFDSPWTTRALSETVVEESDPKPAFSKMNGSMDKKSSTVSEDVEATVPMLQRTKSRIEQGIVDRSETGVLDKKEGEQAKALFEKVKKFRTHVEEGDIVYRLYMRQTIIKVIKFILIICYTVYYVHNIKFDVDCTVDIESLTGYRTYRCAHPLATLFKILASFYISLVIFYGLICMYTLWWMLRRSLKKYSFESIREESSYSDIPDVKNDFAFMLHLIDQYDPLYSKRFAVFLSEVSENKLRQLNLNNEWTLDKLRQRLTKNAQDKLELHLFMLSGIPDTVFDLVELEVLKLELIPDVTIPPSIAQLTGLKELWLYHTAAKIEAPALAFLRENLRALHIKFTDIKEIPLWIYSLKTLEELHLTGNLSAENNRYIVIDGLRELKRLKVLRLKSNLSKLPQVVTDVGVHLQKLSINNEGTKLIVLNSLKKMANLTELELIRCDLERIPHSIFSLHNLQEIDLKDNNLKTIEEIISFQHLHRLTCLKLWYNHIAYIPIQIGNLTNLERLYLNRNKIEKIPTQLFYCRKLRYLDLSHNNLTFLPADIGLLQNLQNLAITANRIETLPPELFQCRKLRALHLGNNVLQSLPSRVGELTNLTQIELRGNRLECLPVELGECPLLKRSGLVVEEDLFNTLPPEVKERLWRADKEQA
- stoichiometry N: 6
